Laboratory results: patent US20090036380A1, “Composition And Method For Brain Tumor Therapy” (Yeda Research and Development Co., Ltd., priority 2006, published 2009)

Tests used:
PC12 cells [1] = assay: Viability / death of PC12 cells after transfection with Karet constructs (Live/dead kit, FACS, cell counting, Hoechst); assay type: cell-based, rat; conditions: PC12-necdin stable cells electroporated with Karet
Experimental: FIG. 5a is a bar-graph of FACS data depicting 50 percent death of PC12 cells overexpressing Karet. Shown is a FACS analysis of PC12 viability 15 hours after transfection with Ha-Karet or control vector using Live/dead kit (Molecular probes), T-test=0.003.
FIG. 5b is a series of fluorescence photomicrographs depicting death of PC12 cells caused by Karet overexpression. Shown is a live/dead kit analysis of PC12 cells overexpressing Ha-Karet (left panels) versus control vector-transfected cells (right panels). Live cell are stained in green, dead cells are stained in red. Upper panels each show red fluorescence only (left picture) and green fluorescence only (right picture) pairs, and lower panels each show combined red and green fluorescence (left picture) and light microscopy images (right picture) pairs. […]
FIG. 5e is a histogram depicting that Karet expression induces cell death of TrkA expressing cells, which is increased by NGF treatment and is decreased by necdin. […] Cells were counted and result presented as percent of control.
PC12 cells were transfected with Ha Karet, PTB, non PTB and their combinations. Cells were analyzed by FACS 18 hours after transfection using the dead/live kit. […]
The lower panel is a histogram depicting that Karet-mediated cell death correlates well with expression levels of the Karet protein. […] Cells were counted and the results were determined as percent of control. […]

PC12 cells [2] = assay: Effect of pathway proteins and inhibitors on Karet-induced cell death in PC12 cells; assay type: cell-based, rat; conditions: co-electroporated with Karet into PC12, 12 hours
TrkA = assay: Co-immunoprecipitation of HA-Karet constructs with TrkA; assay type: binding; conditions: co-transfected Hek or NNR5 cells, anti-HA IP
Experimental: FIG. 3c is a co-immunoprecipitation assay depicting co-immunoprecipitation of HA-Karet with TrkA in COS cells. Karet tagged with the HA epitope was immunoprecipitated with anti-HA antibody and the blot was incubated with anti-TrkA (RTA). In control experiments the HA-Karet was substituted with vector.
FIG. 3d is a co-immunoprecipitation assay depicting interaction of Karet and TrkA in NNR5 cells transfected with TrkA.
FIG. 3e is a co-immunoprecipitation assay depicting co-immunoprecipitation of HA-Karet with TricA in co-transfected NNR5 cells immunoprecipitated with anti-HA (Roche) and Western blot with the anti-TrkA antibody C14 (Santa Cruz).
FIGS. 4a-c are co-immunoprecipitation assay results depicting the influence of NGF treatment on TrkA-Karet interaction. FIG. 4a depicts that TrkA-Karet interaction occurred prior to NGF treatment and was enhanced after ligand stimulation for 10 minutes (10 m) or 2 hours (2 h). HA-Karet was electroporated into cell line PC12, and the cells were treated with 50 ng/ml NGF for the indicated time periods in order to activate p75 and TrkA. Karet tagged with the HA epitope was immunoprecipitated with anti-HA antibody, the precipitated proteins were separated electrophoretically, and gel blots were incubated with anti-TrkA antibody (RTA). […]

[3] = target: 27 amino acid residue juxtamembrane region of TrkA (Homo sapiens, UniProt P04629); assay: In-vitro affinity co-precipitation with biotinylated TrkA juxtamembrane peptide; assay type: binding; conditions: streptavidin beads, recombinant protein, versus two control peptides
Text: FIG. 8a is a co-immunoprecipitation analysis depicting interaction of Karet PTB domain with a juxtamembrane region of TrkA. Biotinylated synthetic peptide corresponding to the TrkA sequence in the juxtamembrane and control peptide were immobilized on streptavidin beads and then used to precipitate recombinant Karet protein. Precipitates were washed, eluted and bound Karet was visualized by Western blot with anti-His antibody.
FIG. 8b is an in-vitro affinity co-precipitation Western blot depicting that the isolated N-terminal PTB domain of Karet specifically interacts with a […] residue juxtamembrane region of TrkA having the sequence Biotinylated synthetic peptides corresponding to a 27 amino acid residue juxtamembrane region of TrkA having the sequence […] (SEQ ID NO: 10), and two control peptides were immobilized on streptavidin beads, and then used to precipitate recombinant PTB domain-containing Karet(1-228) truncation mutant. Precipitates were washed, eluted and bound Karet(1-228) was visualized by Western blot with Karet antibody.

Chain of 27 amino acid residue juxtamembrane region of TrkA (P04629 464-490 limits assumed): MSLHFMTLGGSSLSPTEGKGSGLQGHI

B1: necdin: MAGE protein, interactor of the intracellular domain of p75 (protein)
chain: MSEQSKDLSDPNFAAEVPDCEMQDSDAVPVGIPPPASLAANLAGPPCAPEGPMAAQQASPPPEERIEDVDPKILQQAAEEGRAHQPQSPARPIPAPPAPAQLVQKAHELMWYVLVKDQKRMVLWFPDMVKEVMGSYKKWCRSILRRTSVILARVFGLHLRLTNLHTMEFALVKALSPEELDRVALNNRMPMTGLLLMILSLIYVKGRGAREGAVWNVLRILGLRPWKKHSTFGDVRKIITEEFVQQNYLKYQRVPHIEPPEYEFFWGSRANREITKMQIMEFLARVFKKDPQAWPSRYREALEQARALREANLAAQAPRSSVSED
PC12 cells [1]
  effect on the apoptotic effects of Karet: attenuated somewhat the apoptotic effects of Karet

B2: p35: a baculovirus caspase-8 and caspase-10 inhibitor (protein, UniProt P08160 1-299, looked up)
Early 35 kDa protein: MCVIFPVEIDVSQTIIRDCQVDKQTRELVYINKIMNTQLTKPVLMMFNISGPIRSVTRKNNNLRDRIKSKVDEQFDQLERDYSDQMDGFHDSIKYFKDEHYSVSCQNGSVLKSKFAKILKSHDYTDKKSIEAYEKYCLPKLVDERNDYYVAVCVLKPGFENGSNQVLSFEYNPIGNKVIVPFAHEINDTGLYEYDVVAYVDSVQFDGEQFEEFVQSLILPSSFKNSEKVLYYNEASKNKSMIYKALEFTTESSWGKSEKYNWKIFCNGFIYDKKSKVLYVKLHNVTSALNKNVILNTIK
PC12 cells [2]
  effect on cell death induction by Karet: did not affect cell death induction

B3: JIP1: a Jnk scaffold and inhibitor (protein, UniProt Q9UQF2 1-711, looked up)
C-Jun-amino-terminal …: MAERESGGLGGGAASPPAASPFLGLHIASPPNFRLTHDISLEEFEDEDLSEITDECGISLQCKDTLSLRPPRAGLLSAGGGGAGSRLQAEMLQMDLIDATGDTPGAEDDEEDDDEERAARRPGAGPPKAESGQEPASRGQGQSQGQSQGPGSGDTYRPKRPTTLNLFPQVPRSQDTLNNNSLGKKHSWQDRVSRSSSPLKTGEQTPPHEHICLSDELPPQSGPAPTTDRGTSTDSPCRRSTATQMAPPGGPPAAPPGGRGHSHRDRIHYQADVRLEATEEIYLTPVQRPPDAAEPTSAFLPPTESRMSVSSDPDPAAYPSTAGRPHPSISEEEEGFDCLSSPERAEPPGGGWRGSLGEPPPPPRASLSSDTSALSYDSVKYTLVVDEHAQLELVSLRPCFGDYSDESDSATVYDNCASVSSPYESAIGEEYEEAPRPQPPACLSEDSTPDEPDVHFSKKFLNVFMSGRSRSSSAESFGLFSCIINGEEQEQTHRAIFRFVPRHEDELELEVDDPLLVELQAEDYWYEAYNMRTGARGVFPAYYAIEVTKEPEHMAALAKNSDWVDQFRVKFLGSVQVPYHKGNDVLCAAMQKIATTRRLTVHFNPPSSCVLEISVRGVKIGVKADDSQEAKGNKCSHFFQLKNISFCGYHPKNNKYFGFITKHPADHRFACHVFVSEDSTKALAESVGRAFQQFYKQFVEYTCPTEDIYLE
PC12 cells [2]
  effect on cell death induction by Karet: did not affect cell death induction

B4: Karet(1-228): N-terminal, PTB-domain-containing truncation mutant of mouse Karet, amino acid residues 1-228 (SEQ ID NO: 7) (protein, listed as Mus musculus)
chain: MEEEGKKGKKPGIVSPFKRVFLKGEKSRDKKAHEKVTERRPLHTVVLALPERVEPDRLLSDYIEKEVKYLGQLTSIPGYLNPSSRTEILHFIDKAKRSHQLPGHLTQEHDAVLSLSAYNVKLAWRDGEDIILRVPIHDIAAVSYVRDDAAHLVVLKTAQDPGISPSQSLCAESSRGLSAGSLSESAVGPVEACCLVIMATESKVAAEELCSLLSQVFQIVYTESTIDF
modifications: HA tag; N-terminal PTB-domain-containing, truncation mutant of the mouse Karet
TrkA
  co-immunoprecipitation / interaction with TrkA: interacts with TrkA
TrkA; listed as PTB domain alone
  co-immunoprecipitation / interaction with TrkA: co-immunoprecipitated
[3]
  precipitation by immobilized TrkA peptide (SEQ ID NO: 10): precipitated by the TrkA peptide
